Data reported in patent US20170218073A1 (HENLIX BIOTECH, published 2017).

Key:
EGFR-AP fusion protein = target: T1, EGFR-AP fusion protein (UniProt P00533 25-645); experiment: competitive ELISA: antibody pre-mixed with biotinylated HLX05, EGFR-AP added, capture on avidin wells, pNPP, A405; competitor: biotinylated HLX05
T1 construct: treated as one molecule; also called Alkaline phosphatase-conjugated EGFR; not shown: alkaline phosphatase (AP) part
Procedure: Alkaline phosphatase-conjugated EGFR was then added to the pre-mixed solution and pre-incubated for 1 hour at room temperature. The preincubation mix was then added to mictotiter wells coated with avidin. Following a one-hour incubation, all wells were washed with PBST, and pNPP was added to each well. Following a second incubation at 37° C., the reaction was stopped.

[1] = target: T2, epidermal growth factor receptor (EGFR) (UniProt P00533 25-645, limits assumed); experiment: kinetics of Table 6 (method not named, presumably SPR); lower end tied to 1-26/3-67 by Table 6 (2.2)
[2] = target: T2, epidermal growth factor receptor (EGFR); experiment: kinetics, method not named for Table 6 (presumably SPR)
[3] = target: T2, epidermal growth factor receptor (EGFR); experiment: kinetics, method not named for Table 6 (presumably SPR); against HLX05
[4] = target: T2, epidermal growth factor receptor (EGFR); experiment: SPR
[5] = target: T3, EGFR antigen produced in-house (UniProt P00533 25-645, limits assumed); experiment: off-rate ELISA in wells coated with EGFR antigen produced in-house, A405
T3 construct: May be the same preparation as m1
Text: The 1-26 heavy chain was selected and used as the basis for generating CDR-H2 libraries for deletion of a glycosylation site. CDR-H2 nucleic acid libraries were generated via PCR, cloned into a phage display vector, and transformed into E. coli to produce a library of phages.

[6] = target: T2, epidermal growth factor receptor (EGFR); experiment: SPR; against HLX05

B1: 1-26/3-67 (LC/HC) (antibody, V domains shown)
VH: EVQLVESGGGLVQPGGSLRLSCAASGFSLTNYGVHWVRQAPGKGLEWLGVIWSGGNTDYGNEFTSRFTISRDNAKNSLYLQMNSLRAEDTAVYYCARALDYYDYEFAYWGQGTMVTVSS
VL: EIVLTQSPATLSLSPGERATLSCRASQSIGTNIHWYQQKPGQAPRLLIKYASESISGIPARFSGSGSGTDFTLTISSLEPEDFAVYYCQQNNNWPTSFGGGTKVEIK
notes: also called HLX07; HLX07 1-26/3-67
B1 was tested, and the “IC50 (read off the curve)” value (EGFR-AP fusion protein) was roughly 4 µg/mL, the “fold higher affinity than HLX05” value [1] was 2 to 3 fold and the Kd [2] was 0.111 nM. The koff [2] was 0.000995 s⁻¹, the kon [2] was 8.93e+06 M⁻¹ s⁻¹ and the “Fold difference in KD” value [3] was 2.2 fold. The Kd [4] was 0.109 nM, the koff [4] was 0.000553 s⁻¹ and the kon [4] was 5.09e+06 M⁻¹ s⁻¹. For the same binder, the “EC50 (read off the curve)” value [5] was roughly 0.3 µg/mL and the “Fold difference in KD” value [6] was 1.2 fold.
